Patent publication US20190177418A1

Key:
[1] = target: mouse TrkB, endogenous on mouse cortical neurons and mouse embryonic stem cell line (mouse) (UniProt P15209); test: cell-based or functional assay
[2] = target: human TrkB (tropomyosin receptor kinase B) expressed on CHO reporter cells (human) (UniProt Q16620); test: cell-based or functional assay
Chain of UniProt Q16620 (Q16620 32-822): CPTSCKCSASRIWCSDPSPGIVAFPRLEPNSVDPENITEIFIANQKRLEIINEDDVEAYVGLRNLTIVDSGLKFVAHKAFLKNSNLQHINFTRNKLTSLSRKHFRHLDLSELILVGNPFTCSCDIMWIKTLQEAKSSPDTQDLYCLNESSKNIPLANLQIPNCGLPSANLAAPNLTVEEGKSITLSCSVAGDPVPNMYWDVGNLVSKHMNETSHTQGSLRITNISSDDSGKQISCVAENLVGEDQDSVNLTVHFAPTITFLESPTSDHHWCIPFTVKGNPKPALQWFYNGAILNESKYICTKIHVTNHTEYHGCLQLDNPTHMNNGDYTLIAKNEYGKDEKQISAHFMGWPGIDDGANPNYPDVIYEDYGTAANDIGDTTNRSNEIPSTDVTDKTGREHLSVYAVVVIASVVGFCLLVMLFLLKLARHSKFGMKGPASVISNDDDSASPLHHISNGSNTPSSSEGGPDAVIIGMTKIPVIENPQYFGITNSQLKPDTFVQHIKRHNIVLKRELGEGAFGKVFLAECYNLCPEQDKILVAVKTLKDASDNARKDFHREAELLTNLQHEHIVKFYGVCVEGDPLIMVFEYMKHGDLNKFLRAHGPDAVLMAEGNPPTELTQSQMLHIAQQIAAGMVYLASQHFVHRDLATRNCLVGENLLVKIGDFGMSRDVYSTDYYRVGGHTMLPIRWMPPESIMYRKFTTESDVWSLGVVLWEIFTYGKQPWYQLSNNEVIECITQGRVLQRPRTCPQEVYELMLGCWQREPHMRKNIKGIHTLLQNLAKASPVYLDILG

Chain of UniProt P15209 (P15209 32-821): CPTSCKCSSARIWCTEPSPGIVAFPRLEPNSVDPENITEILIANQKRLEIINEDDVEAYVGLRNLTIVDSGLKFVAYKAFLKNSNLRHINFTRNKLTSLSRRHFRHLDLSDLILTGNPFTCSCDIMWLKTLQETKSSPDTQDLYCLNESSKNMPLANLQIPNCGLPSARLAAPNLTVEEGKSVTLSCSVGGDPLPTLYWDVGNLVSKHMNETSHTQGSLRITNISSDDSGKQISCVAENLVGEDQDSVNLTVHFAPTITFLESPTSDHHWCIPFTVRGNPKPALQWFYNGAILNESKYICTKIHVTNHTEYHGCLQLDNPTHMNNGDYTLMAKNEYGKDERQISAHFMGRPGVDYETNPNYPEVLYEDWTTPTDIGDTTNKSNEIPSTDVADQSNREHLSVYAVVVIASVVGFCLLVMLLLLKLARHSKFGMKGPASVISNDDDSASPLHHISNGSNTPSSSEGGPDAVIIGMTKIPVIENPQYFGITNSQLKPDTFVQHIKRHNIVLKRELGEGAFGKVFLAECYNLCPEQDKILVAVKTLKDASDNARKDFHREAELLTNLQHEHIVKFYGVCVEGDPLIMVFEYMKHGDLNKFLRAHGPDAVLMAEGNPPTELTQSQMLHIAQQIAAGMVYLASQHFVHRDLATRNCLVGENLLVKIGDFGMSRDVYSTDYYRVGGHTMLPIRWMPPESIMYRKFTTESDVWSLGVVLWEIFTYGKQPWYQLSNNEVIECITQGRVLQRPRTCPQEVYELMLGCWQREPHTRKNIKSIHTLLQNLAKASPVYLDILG

TrkB phosphorylation in mouse embryonic stem cell line [1]: 2 nM | signaling in human TrkB reporter cell [2]: 2 nM
Substance: brain derived neurotrophic factor (BDNF) (from UniProt P23560 129-247) (ligand)
